Data taken from article PMC9770967, “Native holdup (nHU) to measure binding affinities from cell extracts” (Science Advances, 2022).

B1: DNAJC16 (protein, UniProt Q9Y2G8 26-782, looked up)
DnaJ homolog subfamily C …: LDFDPYRVLGVSRTASQADIKKAYKKLAREWHPDKNKDPGAEDKFIQISKAYEILSNEEKRSNYDQYGDAGENQGYQKQQQQREYRFRHFHENFYFDESFFHFPFNSERRDSIDEKYLLHFSHYVNEVVPDSFKKPYLIKITSDWCFSCIHIEPVWKEVIQELEELGVGIGVVHAGYERRLAHHLGAHSTPSILGIINGKISFFHNAVVRENLRQFVESLLPGNLVEKVTNKNYVRFLSGWQQENKPHVLLFDQTPIVPLLYKLTAFAYKDYLSFGYVYVGLRGTEEMTRRYNINIYAPTLLVFKEHINRPADVIQARGMKKQIIDDFITRNKYLLAARLTSQKLFHELCPVKRSHRQRKYCVVLLTAETTKLSKPFEAFLSFALANTQDTVRFVHVYSNRQQEFADTLLPDSEAFQGKSAVSILERRNTAGRVVYKTLEDPWIGSESDKFILLGYLDQLRKDPALLSSEAVLPDLTDELAPVFLLRWFYSASDYISDCWDSIFHNNWREMMPLLSLIFSALFILFGTVIVQAFSDSNDERESSPPEKEEAQEKTGKTEPSFTKENSSKIPKKGFVEVTELTDVTYTSNLVRLRPGHMNVVLILSNSTKTSLLQKFALEVYTFTGSSCLHFSFLSLDKHREWLEYLLEFAQDAAPIPNQYDKHFMERDYTGYVLALNGHKKYFCLFKPQKTVEEEEAIGSCSDVDSSLYLGESRGKPSCGLGSRPIKGKLSKLSLWMERLLEGSLQRFYIPSWPELD
B2: Strumpellin: component of the WASH complex (protein, UniProt Q12768 1-1159, looked up)
WASH complex subunit 5: MLDFLAENNLCGQAILRIVSCGNAIIAELLRLSEFIPAVFRLKDRADQQKYGDIIFDFSYFKGPELWESKLDAKPELQDLDEEFRENNIEIVTRFYLAFQSVHKYIVDLNRYLDDLNEGVYIQQTLETVLLNEDGKQLLCEALYLYGVMLLVIDQKIEGEVRERMLVSYYRYSAARSSADSNMDDICKLLRSTGYSSQPGAKRPSNYPESYFQRVPINESFISMVIGRLRSDDIYNQVSAYPLPEHRSTALANQAAMLYVILYFEPSILHTHQAKMREIVDKYFPDNWVISIYMGITVNLVDAWEPYKAAKTALNNTLDLSNVREQASRYATVSERVHAQVQQFLKEGYLREEMVLDNIPKLLNCLRDCNVAIRWLMLHTADSACDPNNKRLRQIKDQILTDSRYNPRILFQLLLDTAQFEFILKEMFKQMLSEKQTKWEHYKKEGSERMTELADVFSGVKPLTRVEKNENLQAWFREISKQILSLNYDDSTAAGRKTVQLIQALEEVQEFHQLESNLQVCQFLADTRKFLHQMIRTINIKEEVLITMQIVGDLSFAWQLIDSFTSIMQESIRVNPSMVTKLRATFLKLASALDLPLLRINQANSPDLLSVSQYYSGELVSYVRKVLQIIPESMFTSLLKIIKLQTHDIIEVPTRLDKDKLRDYAQLGPRYEVAKLTHAISIFTEGILMMKTTLVGIIKVDPKQLLEDGIRKELVKRVAFALHRGLIFNPRAKPSELMPKLKELGATMDGFHRSFEYIQDYVNIYGLKIWQEEVSRIINYNVEQECNNFLRTKIQDWQSMYQSTHIPIPKFTPVDESVTFIGRLCREILRITDPKMTCHIDQLNTWYDMKTHQEVTSSRLFSEIQTTLGTFGLNGLDRLLCFMIVKELQNFLSMFQKIILRDRTVQDTLKTLMNAVSPLKSIVANSNKIYFSAIAKTQKIWTAYLEAIMKVGQMQILRQQIANELNYSCRFDSKHLAAALENLNKALLADIEAHYQDPSLPYPKEDNTLLYEITAYLEAAGIHNPLNKIYITTKRLPYFPIVNFLFLIAQLPKLQYNKNLGMVCRKPTDPVDWPPLVLGLLTLLKQFHSRYTEQFLALIGQFICSTVEQCTSQKIPEIPADVVGALLFLEDYVRYTKLPRRVAEAHVPNFIFDEFRTVL
B3: WASH2: component of the WASH complex (protein)
chain: MTPVRMQHSLAGQTYAVPLIQPDLRREEAVQQMADALQYLQKVSGDIFSRISQQVEQSRSQVQAIGEKVSLAQAKIEKIKGSKKAIKVFSSAKYPAPERLQEYGSIFTGAQDPGLQRRPRHRIQSKHRPLDERALQEKLKDFPVCVSTKPEPEDDAEEGLGGLPSNISSVSSLLLFNTTENLYKKYVFLDPLAGAVTKTHVMLGAETEEKLFDAPLSISKREQLEQQVPENYFYVPDLGQVPEIDVPSYLPDLPGIANDLMYIADLGPGIAPSAPGTIPELPTFHTEVAEPLKVDLQDGVLTPPPPPPPPPPAPEVLASAPPLPPSTAAPVGQGARQDDSSSSASPSVQGAPREVVDPSGGRATLLESIRQAGGIGKAKLRSMKERKLEKKKQKEQEQVRATSQGGHLMSDLFNKLVMRRKGISGKGPGAGEGPGGAFARVSDSIPPLPPPQQPQAEEDEDDWES
B4: FUS (protein, UniProt P35637 1-526, looked up)
RNA-binding protein FUS: MASNDYTQQATQSYGAYPTQPGQGYSQQSSQPYGQQSYSGYSQSTDTSGYGQSSYSSYGQSQNTGYGTQSTPQGYGSTGGYGSSQSSQSSYGQQSSYPGYGQQPAPSSTSGSYGSSSQSSSYGQPQSGSYSQQPSYGGQQQSYGQQQSYNPPQGYGQQNQYNSSSGGGGGGGGGGNYGQDQSSMSSGGGSGGGYGNQDQSGGGGSGGYGQQDRGGRGRGGSGGGGGGGGGGYNRSSGGYEPRGRGGGRGGRGGMGGSDRGGFNKFGGPRDQGSRHDSEQDNSDNNTIFVQGLGENVTIESVADYFKQIGIIKTNKKTGQPMINLYTDRETGKLKGEATVSFDDPPSAKAAIDWFDGKEFSGNPIKVSFATRRADFNRGGGNGRGGRGRGGPMGRGGYGGGGSGGGGRGGFPSGGGGGGGQQRAGDWKCPNPTCENMNFSWRNECNQCKAPKPDGPGGGPGGSHMGGNYGDDRRGGRGGYDRGGYRGRGGDRGGFRGGRGGGDRGGFGPGKMDSRGEHRQDRRERPY

Assays:
Format in all cases: binding, human
[1] = target: SCRIB_PDZ_1; assay: nHU-MS, SCRIB_PDZ_1 bait, total Jurkat extracts (Exploris MS); conditions: SCRIB_PDZ_1&Jurkat (Exploris)
Excerpt: (§1) To further establish the repeatability and robustness of the nHU-MS assay, we repeated the experiments using a different mass spectrometer and six different PDZ domain baits taken from SCRIB (PDZ_1 and PDZ_2), discs large MAGUK scaffold protein 1 (DLG1, PDZ_1, and PDZ_2), Tax1 binding protein 3 (TAX1BP3), and SNX27 (fig. S3B and table S1). […] Of the studied baits, the PDZ domain of SNX27 turned out to be the most promiscuous with 103 statistically significant interaction partners (while 180 SNX27 binding partners were identified in total on the basis of the three independent nHU-MS experiments).
(§2) For saturating streptavidin resin with biotinylated peptides or biotin, 50 μl of streptavidin resin was mixed with biotin or peptide at 40 to 60 μM concentration in 6 to 6.5 resin volume for 60 min. To saturate streptavidin resin with biotinylated proteins, 50 μl of streptavidin resin (Streptavidin Sepharose High Performance, Cytiva) was mixed with biotinylated MBP or MBP-PDZ at 40 to 50 μM concentration in 20× resin volume for 60 min. After saturation, resins were washed a single time [10 resin volume, holdup buffer: 50 mM tris (pH 7.5), 300 mM NaCl, and 1 mM TCEP, 0.22-μm filtered] and were depleted with biotin (10 resin volume, 10 min, holdup buffer supplemented with 100 μM biotin). Last, resins were washed two times (10 resin volume, holdup buffer).
(§3) For single-point nHU experiments carried out at ~10 μM bait concentration, 50 μl of saturated streptavidin resin was mixed with 200 μl of cell lysate (2 mg/ml). Titration experiments were carried out by mixing control and bait-saturated resin and keeping the total resin volume constant; e.g., ~5 μM bait concentration can be achieved by mixing 25 μl of bait-saturated streptavidin resin with 25 μl of control resin and 200 μl of cell lysate (2 mg/ml). Control and bait-saturated resins were prepared in larger amounts, and a serial dilution was prepared with these presaturated resins to achieve different resin ratios.
(§4) Unless specified elswhere, the nHU mixture was incubated at 4°C for 2 hours. After the incubation ended, the resin was separated from the supernatant by a brief centrifugation (15 s, 2000 g). Then, half of the supernatant was removed by pipetting without any delay to avoid any resin contamination; e.g., 100 μl of supernatant is collected if 200 μl of cell lysate was used as analyte. Alternatively, the supernatant can be centrifuged an additional time to clarify it further, removing any possible resin contamination. In principle, the separation of the supernatant should be as fast as possible since any delay can perturb the equilibrium. […] Alternatively, the resin can be separated from the supernatant using filter plates (e.g., various products of Millipore, Burlington, MA) or spin columns (e.g., Pierce spin cups—cellulose acetate filter from Thermo Fisher Scientific, Waltham, MA) to achieve faster separation.
The nHU samples were precipitated with trichloroacetic acid (TCA) 20% overnight at 4°C and centrifuged at 14,000 rpm for 10 min at 4°C. The protein pellets were washed twice with 1 ml of cold acetone and air-dried. The protein extracts were solubilized in 8 M urea, reduced with 5 mM TCEP for 30 min, and alkylated with 10 mM iodoacetamide for 30 min in the dark. Double digestion was performed at 37°C with 500 ng of endoproteinase Lys-C (Wako, Richmond, USA) for 4 hours, followed by fourfold dilution and an overnight digestion with 500 ng of trypsin (Promega, Charbonnieres les Bains, France). Peptide mixtures were then desalted on a C18 spin-column and dried on a speed vacuum.
(§5) Samples were analyzed using an Ultimate 3000 nano-RSLC coupled in line via a nano-electrospray ionization source, with an LTQ-Orbitrap ELITE mass spectrometer (Thermo Fisher Scientific, San Jose, CA) or with the Orbitrap Exploris 480 mass spectrometer (Thermo Fisher Scientific, Bremen, Germany) equipped with a high field asymmetric ion mobility spectrometry (FAIMS) module. […]

[2] = target: SNX27_PDZ; assay: nHU-MS, SNX27_PDZ bait, total Jurkat extracts, series 2 (Exploris MS); conditions: SNX27_PDZ&Jurkat (Exploris)
Excerpt: as §1, §2, §3, §4
(§6) The nHU samples were precipitated with trichloroacetic acid (TCA) 20% overnight at 4°C and centrifuged at 14,000 rpm for 10 min at 4°C. The protein pellets were washed twice with 1 ml of cold acetone and air-dried. […]
as §5

[3] = target: full-length SNX27; assay: nHU-MS, recombinant full-length SNX27 bait, total Jurkat extracts; conditions: apparent, Fig. 4D, n = 6
Protocol: The empty His6-AviTag-MBP-TEV vector was used to produce biotinylated MBP for control experiments. Proteins were coexpressed with BirA biotin ligase (PET21a-BirA, Addgene, no. 20857) in Escherichia coli BL21(DE3) cells. At isopropyl-β-D-thiogalactopyranoside (IPTG) induction (1 mM IPTG at 18°C overnight), 50 μM biotin was added to the media. Harvested cells were lysed in a buffer containing 50 mM tris (pH 7.5), 150 to 300 mM NaCl, 50 μM biotin, 2 mM β-mercaptoethanol, cOmplete EDTA-free protease inhibitor cocktail (Roche, Basel, Switzerland), 1% Triton X-100, and trace amount of deoxyribonuclease, ribonuclease, and lysozyme. Lysates were frozen at −20°C before further purification steps. Lysates were sonicated and centrifuged for clarification. Expressed proteins were captured on in-house prepacked Ni-IDA (Protino Ni-IDA Resin, Macherey-Nagel, Duren, Germany) columns and were washed with at least 10 column volumes of cold wash buffer [50 mM tris (pH 7.5), 150 mM NaCl, and 2 mM β-mercaptoethanol] before elution with 250 mM imidazole. The Ni elution was collected directly on a preequilibrated amylose column (amylose high flow resin, New England Biolabs, Ipswich, MA). Amylose column was washed with 5 column volumes of cold wash buffer before fractionated elution in a buffer containing 25 mM Hepes (pH 7.5), 150 mM NaCl, 1 mM TCEP, 10% glycerol, 5 mM maltose, and cOmplete EDTA-free protease inhibitor cocktail. The concentration of proteins was determined by their ultraviolet absorption at 280 nm before aliquots were snap-frozen in liquid nitrogen and stored at −80°C.
as §2, §3
Unless specified elswhere, the nHU mixture was incubated at 4°C for 2 hours. After the incubation ended, the resin was separated from the supernatant by a brief centrifugation (15 s, 2000 g). Then, half of the supernatant was removed by pipetting without any delay to avoid any resin contamination; e.g., 100 μl of supernatant is collected if 200 μl of cell lysate was used as analyte. Alternatively, the supernatant can be centrifuged an additional time to clarify it further, removing any possible resin contamination. […]

[4] = target: SCRIB_PDZ_2; assay: nHU-MS, SCRIB_PDZ_2 bait, total Jurkat extracts (Exploris MS); conditions: SCRIB_PDZ_2&Jurkat (Exploris)
Excerpt: as §1, §2, §3, §4, §6, §5

Molecule | pKapp (nHU-MS) [1] | pKapp (nHU-MS) [2] | pKapp [3] | pKapp (nHU-MS) [4]
B1 | 4.6996 | 4.859 |  | 
B2 |  |  | 4.94 | 
B3 |  |  | 5.47 | 
B4 | 4.571 |  |  | 4.538
